In US20190300590A1:
*1 amine or outer side, *2 acyl side, *3 side chain or, on linkers, in order; H or OH if unused. Bridges are numbered along the chain shown (N, C = ends). Primed or numbered codes have the meaning given here. [ ]: non-standard residue; d: D form. Phe(4-(2-acetylaminoethoxy))″ = 4-(2-acetylaminoethoxy)phenylalanine, CC(=O)NCCOc1ccc(C[C@H](N[*:1])C(=O)[*:2])cc1; Phe(4-OMe)(4) = O-methyl-L-tyrosine, COc1ccc(C[C@H](N[*:1])C(=O)[*:2])cc1; 2Nal = N[C@@H](Cc1ccc2ccccc2c1)C(=O)O; AEF = NCCOc1ccc(C[C@H](N)C(=O)O)cc1; Cit = NC(=O)NCCC[C@H](N)C(=O)O; αMeOrn = C[C@](N)(CCCN)C(=O)O; Pen = CC(C)(S)[C@H](N)C(=O)O; αMeK = C[C@](N)(CCCCN)C(=O)O; Orn = NCCC[C@H](N)C(=O)O; Dab = NCC[C@H](N)C(=O)O; Abu = CC[C@H](N)C(=O)O; Dap = NC[C@H](N)C(=O)O; Aib = CC(C)(N)C(=O)O

B1: [Ac-[Pen]-NTWQ-[Pen]-[Phe(4-CONH2)]-[2-Nal]-[Aib]-KNN-NH2]2DIG (peptide)
peptide: XNTWQXFXXKNN
modifications: Ac; Pen-Pen disulfide; Phe(4-CONH2); 2-Nal; Aib; NH2; DIG linker joins the two subunits
B2: [Ac-[Pen]-NTWQ-[Pen]-[Phe(4-CONH2)]-[2-Nal]-[Acvc]-KNN-NH2]2DIG (peptide)
peptide: XNTWQXFXXKNN
modifications: Ac; Pen-Pen disulfide; Phe(4-CONH2); 2-Nal; Acvc; NH2; DIG linker joins the two subunits
B3: Ac-[Pen]-QTWQ-[Pen]-[2-Nal]-[2-Nal]-[α-MeLys]-ENG-NH2 (peptide)
peptide: Ac-[Pen]QTWQ[Pen][2Nal][2Nal][αMeK]ENG-NH2
modifications: disulfide 1-6
SMILES: CC(=O)N[C@@H]1C(=O)N[C@@H](CCC(N)=O)C(=O)N[C@@H]([C@@H](C)O)C(=O)N[C@@H](Cc2c[nH]c3ccccc23)C(=O)N[C@@H](CCC(N)=O)C(=O)N[C@H](C(=O)N[C@@H](Cc2ccc3ccccc3c2)C(=O)N[C@@H](Cc2ccc3ccccc3c2)C(=O)N[C@@](C)(CCCCN)C(=O)N[C@@H](CCC(=O)O)C(=O)N[C@@H](CC(N)=O)C(=O)NCC(N)=O)C(C)(C)SSC1(C)C

Each binder was assayed against Rat IL-23R_huFC (rat) (UniProt F1LX96) (assay: rat IL-23R competitive binding ELISA).

Row | Binder | IC50 [nM]
1 | B1 | 10 to 25
2 | B2 | 10 to 25
3 | B3 | 100 to 1000
4 | XQTWQXYXXENG (Ac; Pen-Pen disulfide; 2-Nal; α-MeOrn; NH2) [Ac-[Pen]-QTWQ-[Pen]-Y-[2-Nal]-[α-MeOrn]-ENG-NH2] | 100 to 1000
5 | XQTWQXYXXENG (Ac; Pen-Pen disulfide; 1-Nal; α-MeOrn; NH2) [Ac-[Pen]-QTWQ-[Pen]-Y-[1-Nal]-[α-MeOrn]-ENG-NH2] | 100 to 1000
6 | Ac-[Pen][Dap]TWQ[Pen][AEF][2Nal][αMeK]ENG-NH2 (disulfide 1-6 (inferred)) [Ac-[Pen]-[Dap]-TWQ-[Pen]-[Phe[4-(2-aminoethoxy)]-[2-Nal]-[α-MeLys]-ENG-NH2] | 25 to 100
7 | XNTWQXFXXKNN (Ac; Pen-Pen disulfide; Phe[4-(2-aminoethoxy)]; 2-Nal; Aib; Lys(Ac); NH2) [Ac-[Pen]-NTWQ-[Pen]-[Phe[4-(2-aminoethoxy)]-[2-Nal]-[Aib]-[Lys(Ac)]-NN-NH2] | < 10
8 | XNTWQXFXXKNA (Ac; Pen-Pen disulfide; Phe[4-(2-aminoethoxy)]; 2-Nal; Aib; Lys(Ac); βAla; NH2) [Ac-[Pen]-NTWQ-[Pen]-[Phe[4-(2-aminoethoxy)]-[2-Nal]-[Aib]-[Lys(Ac)]-N-[βAla]-NH2] | 10 to 25

Each binder was assayed against IL23R_huFC (human) (UniProt Q5VWK5) (assay: IL23-IL23R competitive binding ELISA).
Target sequence in this assay (Q5VWK5 24-353 limits assumed): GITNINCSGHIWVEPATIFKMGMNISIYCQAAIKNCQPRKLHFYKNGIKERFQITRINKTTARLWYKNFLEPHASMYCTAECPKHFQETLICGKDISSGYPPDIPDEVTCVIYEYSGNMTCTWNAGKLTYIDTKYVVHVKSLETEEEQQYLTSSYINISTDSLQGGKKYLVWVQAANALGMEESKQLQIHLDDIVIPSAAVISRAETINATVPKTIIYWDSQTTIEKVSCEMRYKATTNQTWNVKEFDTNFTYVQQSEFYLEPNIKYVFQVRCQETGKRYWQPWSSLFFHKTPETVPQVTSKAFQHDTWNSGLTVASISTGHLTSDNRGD

Row | Binder | IC50 [nM]
9 | B1 | < 10
10 | B2 | < 10
11 | B3 | 100 to 1000
12 | XQTWQXYXXENG (Ac; Pen-Pen disulfide; 2-Nal; α-MeOrn; NH2) [Ac-[Pen]-QTWQ-[Pen]-Y-[2-Nal]-[α-MeOrn]-ENG-NH2] | 25 to 100
13 | XQTWQXYXXENG (Ac; Pen-Pen disulfide; 1-Nal; α-MeOrn; NH2) [Ac-[Pen]-QTWQ-[Pen]-Y-[1-Nal]-[α-MeOrn]-ENG-NH2] | 100 to 1000
14 | XQTWQXFXXKNG (Ac; Pen-Pen disulfide; Phe(4-OMe); 2-Nal; α-MeOrn; Lys(Ac); NH2) [Ac-[Pen]-QTWQ-[Pen]-[Phe(4-OMe)]-[2-Nal]-[α-MeOrn]-[Lys(Ac)]-NG-NH2] | 100 to 1000
15 | Ac-[Pen][Dap]TWQ[Pen][AEF][2Nal][αMeK]ENG-NH2 (disulfide 1-6 (inferred)) [Ac-[Pen]-[Dap]-TWQ-[Pen]-[Phe[4-(2-aminoethoxy)]-[2-Nal]-[α-MeLys]-ENG-NH2] | < 10
16 | Ac-[Pen][αMeOrn]TWQ[Pen][AEF][2Nal][αMeK]ENG-NH2 (disulfide 1-6 (inferred)) [Ac-[Pen]-[α-MeOrn]-TWQ[Pen]-[Phe[4-(2-aminoethoxy)]-[2-Nal]-[α-MeLys]-ENG-NH2] | 100 to 1000
17 | XQTWQXFXXENN (Ac; Pen-Pen disulfide; Phe[4-(2-aminoethoxy)]; 2-Nal; Aib; NH2) [Ac-[Pen]-QTWQ-[Pen]-[Phe[4-(2-aminoethoxy)]-[2-Nal]-[Aib]-ENN-NH2] | < 10
18 | XQTWQXFXXKNN (Ac; Pen-Pen disulfide; Phe[4-(2-aminoethoxy)]; 2-Nal; Aib; Lys(Ac); NH2) [Ac-[Pen]-QTWQ-[Pen]-[Phe[4-(2-aminoethoxy)]-[2-Nal]-Aib-[Lys(Ac)]-NN-NH2] | < 10
19 | Ac-[Pen][Dap](Ac)TWQ[Pen][Phe(4-(2-acetylaminoethoxy))″][2Nal][αMeK](Ac)ENG-NH2 (disulfide 1-6 (inferred)) [Ac-[Pen]-Dap(Ac)TWQ-[Pen]-[Phe[4-(2-acetylaminoethoxy)]-[2-Nal]-[α-MeLys(Ac)]-ENG-NH2] | 10 to 25
20 | Ac-[Pen][αMeOrn](Ac)TWQ[Pen][Phe(4-(2-acetylaminoethoxy))″][2Nal][αMeK](Ac)ENG-NH2 (disulfide 1-6 (inferred)) [Ac-[Pen]-[α-MeOrn(Ac)]-TWQ-[Pen]-[Phe[4-(2-acetylaminoethoxy)]-[2-Nal]-[α-MeLys(Ac)]-ENG-NH2] | 100 to 1000
21 | XQTWQXFXXENN (Ac; Pen-Pen disulfide; Phe[4-(2-acetylaminoethoxy)]; 2-Nal; Aib; NH2) [Ac-[Pen]-QTWQ-[Pen]-[Phe[4-(2-acetylaminoethoxy)]-[2-Nal]-[Aib]-ENN-NH2] | 10 to 25
22 | XQTWQXFXXKNN (Ac; Pen-Pen disulfide; Phe[4-(2-acetylaminoethoxy)]; 2-Nal; Aib; Lys(Ac); NH2) [Ac-[Pen]-QTWQ-[Pen]-[Phe[4-(2-acetylaminoethoxy)]-[2-Nal]-[Aib]-[Lys(Ac)]-NN-NH2] | < 10
23 | XNTWQXFXXKNN (Ac; Pen-Pen disulfide; Phe[4-(2-aminoethoxy)]; 2-Nal; Aib; Lys(Ac); NH2) [Ac-[Pen]-NTWQ-[Pen]-[Phe[4-(2-aminoethoxy)]-[2-Nal]-[Aib]-[Lys(Ac)]-NN-NH2] | < 10

Each binder was assayed against IL23R_huFC (human) (UniProt Q5VWK5) (assay: human ELISA vs IL-23).
Target sequence in this assay (Q5VWK5 24-353): as the sequence (Q5VWK5 24-353 limits assumed) above

Row | Binder | IC50 [nM]
24 | Ac-[Abu]QTWQC[AEF][2Nal][Orn][Dap]NG-NH2 (thioether 1-6) [Ac-Cyclo-[[Abu]-QTWQC]-[Phe[4-(2-aminoethoxy)]]-[2-Nal]-[Orn]-[Dap]-NG-NH2] | 25 to 100
25 | Ac-[Abu]QTWQC[AEF][2Nal][Orn][Dap](Ac)NG-NH2 (thioether 1-6) [Ac-Cyclo-[[Abu]-QTWQC]-[Phe[4-(2-aminoethoxy)]]-[2-Nal]-[Orn]-[Dap(Ac)]-NG-NH2] | 25 to 100
26 | Ac-[Abu]QTWQC[AEF][2Nal][Cit][Dap]NG-NH2 (thioether 1-6) [Ac-Cyclo-[[Abu]-QTWQC]-[Phe[4-(2-aminoethoxy)]]-[2-Nal]-[Cit]-[Dap]-NG-NH2] | 10 to 25
27 | Ac-[Abu]QTWQC[AEF][2Nal][Aib]E[Dap](Ac)G-NH2 (thioether 1-6) [Ac-Cyclo-[[Abu]-QTWQC]-[Phe[4-(2-aminoethoxy)]]-[2-Nal]-[Aib]-E-[Dap(Ac)]-G-NH2] | 10 to 25
28 | Ac-[Abu]QTWQC[AEF][2Nal][Aib]E[Dab](Ac)G-NH2 (thioether 1-6) [Ac-Cyclo-[[Abu]-QTWQC]-[Phe[4-(2-aminoethoxy)]]-[2-Nal]-[Aib]-E-[Dab(Ac)]-G-NH2] | < 10
29 | Ac-[Abu]QTWQC[Phe(4-OMe)(4)][2Nal][Orn][Dap]NG-NH2 (thioether 1-6) [Ac-Cyclo-[[Abu]-QTWQC]-[Phe(4-OMe)]-[2-Nal]-[Orn]-[Dap]-NG-NH2] | 100 to 1000
